The text below walks through data of patent publication US20060193771A1.

Test [1] concerns the target human CD30, native, expressed on cells (human). As to the kind of experiment: competitive FACS on L540 cells, unlabeled MAb 2.5 µg/ml; competitor: biotin-T24.
In test [2] the target is T1, recombinant soluble CD30 (sCD30) produced in E. coli (human).
T1 sequence: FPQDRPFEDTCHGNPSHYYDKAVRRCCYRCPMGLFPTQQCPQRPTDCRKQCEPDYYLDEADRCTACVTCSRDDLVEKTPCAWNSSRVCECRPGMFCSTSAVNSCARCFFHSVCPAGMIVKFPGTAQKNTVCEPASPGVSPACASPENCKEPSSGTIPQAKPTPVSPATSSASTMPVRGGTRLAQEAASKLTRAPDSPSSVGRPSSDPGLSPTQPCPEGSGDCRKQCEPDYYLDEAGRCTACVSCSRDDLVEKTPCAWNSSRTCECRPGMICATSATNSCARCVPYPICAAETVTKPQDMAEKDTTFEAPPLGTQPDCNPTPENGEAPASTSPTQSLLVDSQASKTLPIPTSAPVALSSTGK
Nature of the test: SPR (BIAcore), sCD30 immobilized; not corrected for bivalency. For orientation: In SPR one partner is held on a chip, and binding of the other changes the refractive index at the surface.

Test [3] has as its target human CD30, native, expressed on cells (human). As to the kind of experiment: FACS, L540 cells, MAb 5 µg/ml; HeFi-I is the control itself.
Test [4] shares this target. Nature of the test: competitive FACS on L540 cells, unlabeled MAb 2.5 µg/ml; competitor: biotin-T25.
For test [5] the target is unchanged. Nature of the test: competitive FACS on L540 cells, unlabeled MAb 2.5 µg/ml; competitor: biotin-T6.
In test [6] the target is T1, recombinant soluble CD30 (sCD30) produced in E. coli (human). As to the kind of experiment: indirect ELISA, sCD30 coated.
Test [7] deals with human CD30, native, expressed on cells (human). As to the kind of experiment: competitive FACS on L540 cells, unlabeled MAb 2.5 µg/ml; competitor: biotin-HRS-4.
Test [8] has the same target. Nature of the test: competitive FACS on L540 cells, unlabeled MAb 2.5 µg/ml; competitor: biotin-HeFi-I.
For test [9] the target is unchanged. Nature of the test: competitive FACS on L540 cells, unlabeled MAb 2.5 µg/ml; competitor: biotin-T14.
The target of test [10] is T2, CD30-Fc (human).
T2 sequence: T1 sequence
Nature of the test: affinity of the MAb; ELISA using CD30-Fc. On the technique in general: An ELISA detects its analyte on a solid surface through an enzyme-linked reagent.

Test [11] concerns the target human CD30, native, expressed on cells (human). As to the kind of experiment: FACS, L428 cells, MAb 5 µg/ml; HeFi-I is the control itself. In general terms: In flow cytometry, cells or beads pass a laser one at a time.
The target of test [12] is T1, recombinant soluble CD30 (sCD30) produced in E. coli (human). As to the kind of experiment: SPR (BIAcore), sCD30 immobilized.
The target in test [13] is human CD30, native, expressed on cells (human). Nature of the test: cell-based or functional assay.

Usually Kd stands for the constant that tells how readily two partners part at equilibrium. As usually defined, the koff is the rate constant with which the complex falls apart. By kon is commonly meant a measure of how fast the partners come together.

B1: HeFi-I MAb (antibody, V domains shown)
VH: EVKLVESGGGLVQPGGSLRLSCATSGFTFSDYYMNWVRQPPGKALEWLGFIRNKANGYTTEFSASVMGRFTISRDDSQSILYLQMNTLRAEDSATYYCARDPPYGNPHYYAMDYWGQGTSVTVSS
VL: DIVLTQSPASLAVSLGQRATISCRASKSVSASGYNYMHWYQQKAGQPPKLLIHLASNLESGVPARFSGSGSGTDFTLNIHPVEEEDASTYYCQHSGELPFTFGSGTKLEIK
For B1, the inhibition of the binding of biotin-MAb (%) was 33.4% in [1]; 8.4% in test [4]; 0% in [5]; 0% in test [7]; 98% in test [8]; 0% in test [9]. Besides, the Kd in [2] amounted to 7.8 nM; in [10], 2.4 nM. Further, in [2], the koff came to 0.00054 s⁻¹. Also, in test [2], the kon worked out at 72000 M⁻¹ s⁻¹. In addition, the relative reactivity in FACS (% of control) in [3] and in test [11] was 100 % of control in each case. Besides, the titer in ELISA in [6] worked out at 105 mL/µg.

B2: CL2(scFv)-PE38 (scFv, V domains shown)
VH: EVQLKQSGTELVKPGASVKLSCKASGYTFTSYWMHWVKQRPGQGLEWIGNINPSNGGTNYNEKFKSKATLTIDKSSSTAYMQLSSLTSEDSAVYYCARRTETAQASPFAYWGQGTLVTVSS
VL: DIVMTQSHKFMSTSVGDRVSVTCKASQNVGTNVAWYQQKPGQSPKALIYSASTRYSGVPDRFTGSGSGTDFTLTISNVQSEDLAEYFCQQYNSYPFTFGSGTKLEIK
In the case of B2, in test [12], the dissociation constant Kd amounted to 56 nM, the koff is 0.0022 s⁻¹ and the kon was found to be 38000 M⁻¹ s⁻¹. Also, the IC50, cytotoxicity on A431 cells stably transfected with CD30 in [13] was determined as 2.5 ng/mL.

B3: T7 MAb (antibody, V domains shown)
VH: QVQLQQSGAELVRPGSSVKISCKASGYTFSSYWMNWMKQRPGQGLEWIGQIYPGDDDTNYNGKFKGKATLTADKSSSTAYMQLSSLTSEDSAVYFCARRETGRGAWFTYWGQGTLVTVSA
VL: DIVLTQSPASLAVSLGQRATISCRASESLEYYGTTLMQWYQQKPGQPPKLLIYAASNVESGVPARFSGSGSGTDFSLNIHPVEEDDIAMYFCHQSRKVPSTFGGGTKLEIK
As to B3, the Kd in [10] was 3.5 nM.
